Data on one molecule can be found in publication PMC10167949.

The star is where a group is joined. Biotin = O=C1N[C@H]2[C@H](CS[C@H]2CCCCC(=O)*)N1

Experiment [1] deals with Phosphorylated MST2 kinase domain (pMST2-K) (human) (UniProt Q13188).
In experiment [2] the target is Phosphorylated MST2 kinase linker (pMST2-KL) (human) (UniProt Q13188).
Experiment [3] deals with Phosphorylated full-length MST2 (pMST2-FL) (human) (UniProt Q13188).
Experiment [4] addresses T1, Unphosphorylated full-length MST2 (MST2-FL) (human) (UniProt Q13188).
T1 sequence: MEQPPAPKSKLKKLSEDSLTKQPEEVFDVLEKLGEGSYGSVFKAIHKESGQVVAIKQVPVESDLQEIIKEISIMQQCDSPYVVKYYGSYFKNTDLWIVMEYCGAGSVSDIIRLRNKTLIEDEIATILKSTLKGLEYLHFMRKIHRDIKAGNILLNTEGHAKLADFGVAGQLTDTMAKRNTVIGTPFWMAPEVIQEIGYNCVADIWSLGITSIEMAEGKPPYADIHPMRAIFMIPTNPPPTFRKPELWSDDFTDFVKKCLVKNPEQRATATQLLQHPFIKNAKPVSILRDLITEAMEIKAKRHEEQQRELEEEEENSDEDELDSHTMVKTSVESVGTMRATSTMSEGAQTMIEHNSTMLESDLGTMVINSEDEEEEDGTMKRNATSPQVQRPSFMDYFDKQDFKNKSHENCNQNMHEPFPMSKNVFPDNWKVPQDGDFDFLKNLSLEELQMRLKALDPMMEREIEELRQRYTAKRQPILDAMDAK

B1: peptide substrate (Biotin-…-NH2) (peptide)
peptide: Biotin-GGGENWYNTLKRKK-NH2
SMILES: CC(C)C[C@H](NC(=O)[C@@H](NC(=O)[C@H](CC(N)=O)NC(=O)[C@H](Cc1ccc(O)cc1)NC(=O)[C@H](Cc1c[nH]c2ccccc12)NC(=O)[C@H](CC(N)=O)NC(=O)[C@H](CCC(=O)O)NC(=O)CNC(=O)CNC(=O)CNC(=O)CCCC[C@@H]1SC[C@@H]2NC(=O)N[C@@H]21)[C@@H](C)O)C(=O)N[C@@H](CCCCN)C(=O)N[C@@H](CCCNC(=N)N)C(=O)N[C@@H](CCCCN)C(=O)N[C@@H](CCCCN)C(N)=O
B1: the Km^app peptide, radiometric kinase assay (steady state, 30°C) in experiment [1] came to 27 µM; in experiment [2] it was 35 µM; in experiment [3], 32 µM; in experiment [4], 139 µM.
